Test results published in PMC6742747, “A Unique Homo-Hexameric Structure of 2-Aminomuconate Deaminase in the Bacterium Pseudomonas species AP–3” (Frontiers in Microbiology, 2019).
Changes are numbered by the printed parent chain. In names and notes the source's numbering stands.

B1: 2-aminomuconate deaminase (AmnE) from Pseudomonas sp. AP-3, wild type (enzyme, UniProt Q9KWS2 1-142, looked up)
chain: MVSKADNSAKLVEGKAKPMGSFPHVKRAGDFLFVSGTSSRRPDNTFVGAEPDDTGRPRPNIELQTREVISNIRDILQSVGADLGDVVEVCSYLVNMNDFAAYNKVYAEFFDATGPARTTVAVHQLPHPQLVIEIKVVAYKPL
notes: 2-aminomuconate deaminase AmnE, Pseudomonas sp; AP-3; protomer of 142 residues; Hexamer made of two trimers, by crystal structure, SEC and cross-linking; the database entry may name the gene amnD; After thrombin cleavage a few vector residues may remain at the N-terminus (surmised); also called wild-type AmnE; source: E. coli BL21 (DE3) pLysS, purified (Ni-NTA, Resource Q, Superdex 75); not …
B2: AmnE R56A (enzyme, Pseudomonas sp. AP-3, UniProt Q9KWS2 1-142, looked up)
chain: B1 chain with R56A
notes: 2-aminomuconate deaminase AmnE, Pseudomonas sp; AP-3, as m1 with R56A; The purification, including tag cleavage, is described once for the wild type and the mutants together; Trimer by SEC; also called single mutant of AmnE R56A; source: E. coli BL21 (DE3) pLysS, purified (Ni-NTA, Resource Q, Superdex 75); not shown: His6, N-terminal, cleaved
B3: AmnE P126A (enzyme, Pseudomonas sp. AP-3, UniProt Q9KWS2 1-142, looked up)
chain: B1 chain with P126A
notes: 2-aminomuconate deaminase AmnE, Pseudomonas sp; AP-3, as m1 with P126A; The purification, including tag cleavage, is described once for the wild type and the mutants together; Hexamer by SEC; also called mutant AmnE P126A; source: E. coli BL21 (DE3) pLysS, purified (Ni-NTA, Resource Q, Superdex 75); not shown: His6, N-terminal, cleaved
B4: AmnEΔ49–59 (enzyme, Pseudomonas sp. AP-3, UniProt Q9KWS2 1-142, looked up)
chain: MVSKADNSAKLVEGKAKPMGSFPHVKRAGDFLFVSGTSSRRPDNTFVGNIELQTREVISNIRDILQSVGADLGDVVEVCSYLVNMNDFAAYNKVYAEFFDATGPARTTVAVHQLPHPQLVIEIKVVAYKPL
notes: 2-aminomuconate deaminase AmnE, Pseudomonas sp; AP-3, as m1 with residues Ala49-Pro59 of loop Lp2 deleted; The purification, including tag cleavage, is described once for the wild type and the mutants together; Trimer by SEC; also called AmnEΔLp2 (residues Ala49–Pro59); truncated mutant AmnEΔ49–59; source: E. coli BL21 (DE3) pLysS, purified (Ni-NTA, Resource Q, Superdex 75); not shown: His6, …

Target: the molecule itself
Assay: SEC; analytic Superdex 200 10/300 GL; 1 mg/ml; 50 mM HEPES, 150 mM NaCl, 1 mM DTT, 1 mM EDTA, 5% glycerol, pH 8.0; 0.3 ml/min, 16°C; mass calculated from the elution volume

Compared with B1, B2 is lower in “stoichiometry N” value: 6 for the first, 3 for the second.

First: B3
Second: B4
The “stoichiometry N” value of the first is higher: 6 for the first, 3 for the second.
